Data published in patent publication US20250121076A1, “POLYPEPTIDE DRUG CONJUGATE HAVING NOVEL STRUCTURE AND APPLICATION THEREOF” (MEDSHINE DISCOVERY INC., priority 2021, published 2025).
Structures can show the parent of a compound that is named as a salt. Starred links: 1 amine or outer side, 2 acyl side, 3 side chain; linkers in the order of their positions; H or OH if unused. Positions of bridges follow the written chain, without caps; N, C: chain ends. Non-standard residues stand in square brackets, D forms with d. Residues, ends and D or L forms follow the SMILES beside them. Chains are numbered I, II in the order given. *: point of attachment. TATA = O=C(CC[*:1])N1CN(C(=O)CC[*:2])CN(C(=O)CC[*:3])C1; Dolaproine = CO[C@@H]([C@@H]1CCCN1)[C@@H](C)C(=O)O; Dil = CC[C@H](C)[C@H](NC)[C@@H](CC(=O)O)OC; X2 = O=C(CCCC(=O)[*:2])NCCC(=O)[*:1]; PABC = O=C(OCc1ccc(N[*:1])cc1)[*:2]; X1 = C[C@@H](N*)[C@@H](O)c1ccccc1; Hyp = O=C(O)[C@@H]1C[C@@H](O)CN1; hArg = N=C(N)NCCCC[C@H](N)C(=O)O; Cit = NC(=O)NCCC[C@H](N)C(=O)O; Pen = CC(C)(S)[C@H](N)C(=O)O; NMeV = CN[C@H](C(=O)O)C(C)C; Sar = CNCC(=O)O

Tests used:
[1] = In vivo pharmacokinetic analysis in mice; set-up: species or system CD-1 mice; conditions: mouse, in vivo, CD-1 mice, single IV 2 mg/kg, plasma
Description: To test the pharmacokinetics of the compounds of the present invention in CD-1 mice
The pharmacokinetic characteristics of the compound after intravenous injection and oral administration were tested in CD-1 mice according to a standard protocol. The compound of the present invention was formulated into a clear solution using 50 mM acetate buffer (pH=5) in 10% sucrose as a vehicle. Two mice were given a single intravenous injection of 2 mg/kg of the compound to be tested. Whole blood was collected at time points of 0.083, 0.25, 0.5, 1, 2, 4, 8, and 24 hours after administration to get plasma. The concentration of the compound to be tested and the concentration of its potential metabolite MMAE were analyzed by the LC-MS/MS method, and the pharmacokinetic parameters, such as maximal concentration (Cmax), clearance (Cl), half-life (T1/2), […] (Vdss), and area under the concentration-time curve (AUC0-last), were calculated by Phoenix WinNonlin software.

[2] = Metabolic stability in hepatocytes; type: in vitro ADME, Humans; conditions: human hepatocytes, 1 μM, 0.5×10^6 cells/mL
Description: To investigate the metabolic stability of the compounds of the present invention in hepatocytes from Cynomolgus macaques and humans.
Incubations were performed in 96-well plates using an external extraction method. Several 96-well sample precipitation plates, designated T0, T15, T30, T60, T90, T0-MC, T90-MC, and blank matrix, were prepared, respectively. The recovery culture medium and incubation culture medium were removed in advance and placed in a 37° C. water bath for preheating. Frozen hepatocytes from Cynomolgus macaques and humans were removed from a liquid nitrogen tank, recovered, and diluted to 0.51×10^6 cells/mL with the incubation culture medium. […]
At the end of the incubation at the corresponding time point, the incubation plates were removed, from which 25 μL of a compound mixture with the cells was removed and added to sample plates containing 125 μL of stop buffer. […] All samples were mixed uniformly and then analyzed by the LC-MS/MS method.
The concentration of the compound of the present invention in the sample was semi-quantitatively determined by the liquid chromatography-tandem mass spectrometry (LC-MS/MS) method without a standard curve and quality control sample. […]

Stability in whole blood = type: in vitro ADME, Cynomolgus macaques; conditions: Cynomolgus macaque whole blood, 2 μM, 37° C.
Description: To test the stability of the compounds of the present invention in whole blood from SD rats and Cynomolgus macaques.
(§1) The corresponding incubation plates, including T0, T10, T30, T60, T120, and T240 incubation plates, were added with a 2 μL working solution of the compound to be tested (100 μM). Three parallel wells were prepared for each sample. Then, 98 μL of blank whole blood from SD rats and Cynomolgus macaques was added to the corresponding incubation plates to which the working solution had been added. All samples were incubated in a 37° C. water bath. […] At the end of each incubation time point, the corresponding incubation plate was removed, added with stop buffer, precipitated, and centrifuged for 20 minutes. Then, 100 μL of the supernatant was diluted with 300 μL of ultrapure water, mixed uniformly, and then analyzed by the LC-MS/MS method. The concentration of the compound to be tested in the sample was semi-quantitatively determined by the liquid chromatography-tandem mass spectrometry (LC-MS/MS) method.

Stability in plasma = type: in vitro ADME, Humans; conditions: human plasma, 2 μM, 37° C., up to 240 min
Description: To test the stability of the compounds of the present invention in plasma from rats, Cynomolgus macaques, and humans.
as §1, with “blank plasma” for “blank whole blood”, “SD rats, Cynomolgus macaques,” for “SD rats”, “and humans” for “and Cynomolgus macaques”, “Then, 150” for “Then, 100”, “was” for “was diluted with 300 μL of ultrapure water, mixed uniformly, and then”

[3] = Pharmacokinetic analysis in rat plasma at different doses (6.2); type: in vivo, SD rats; conditions: rat, in vivo, male SD rats
Description: Experimental purpose: To test the pharmacokinetics of the compounds of the present invention in SD rats.
6.2 The pharmacokinetic characteristics of the compound after intravenous injection and oral administration were tested in rats according to a standard protocol. The compound to be tested was formulated into a clear solution using 50 mM acetate buffer (pH=5) in 10% sucrose as a vehicle. Three male SD rats were given a single intravenous injection of 2.5 mg/kg, 3.75 mg/kg, or 5 mg/kg of the compound to be tested. Whole blood was collected at time points of 0.083, 0.25, 0.5, 1, 4, and 24 hours after administration to get plasma. The concentration of the compound to be tested and the concentration of its potential metabolite MMAE were analyzed by the LC-MS/MS method, and the pharmacokinetic parameters were calculated.

`CC[C@H](C)[C@@H]([C@@H](CC(=O)N1CCC[C@H]1[C@H](OC)[C@@H](C)C(=O)N[C@H](C)[C@@H](O)c1ccccc1)OC)N(C)C(=O)[C@@H](NC(=O)[C@H](C(C)C)N(C)C(=O)OCc1ccc(NC(=O)[C@H](CCCNC(N)=O)NC(=O)[C@@H](NC(=O)CCCC(=O)NCCC(=O)N(C)CC(=O)N(C)CC(=O)N(C)CC(=O)N(C)CC(=O)N(C)CC(=O)N(C)CC(=O)N(C)CC(=O)N(C)CC(=O)N(C)CC(=O)N(C)CC(=O)N[C@H]2CCCCNC(=O)C[C@@H](C(=O)N[C@H]3CSCCC(=O)N4CN5CN(C4)C(=O)CCSC(C)(C)[C@@H](C(N)=O)NC(=O)[C@H](CCCCNC(=N)N)NC(=O)[C@H](Cc4c[nH]c6ccccc46)NC(=O)[C@@H](CC(=O)O)NC(=O)[C@@H]4CCCN4C(=O)[C@H](Cc4c[nH]cn4)NC(=O)[C@H](CC(C)C)NC(=O)[C@H](CSCCC5=O)NC(=O)[C@H](CC(C)C)NC(=O)[C@@H]4CCCN4C(=O)[C@H](CC(N)=O)NC(=O)[C@H](C(C)C)NC(=O)[C@H](CC(C)C)NC(=O)[C@@H]4C[C@@H](O)CN4C3=O)NC(=O)[C@H](CCCCNC(=N)N)NC2=O)C(C)C)cc1)C(C)C` [Acetate salt of PDC_8] (I: [Sar][Sar][Sar][Sar][Sar][Sar][Sar][Sar][Sar][Sar]K[hArg]DC[Hyp]LVNPLCLHP[dD]W[hArg][Pen]-NH2 / II: V[Cit][PABC][NMeV]V[Dil][Dolaproine]-X1; lactam I:11-I:13; linker I:14-I:21-I:28 via TATA; linker I:N-II:N via X2) showed an AUC(0-t) [1] of 0.56 µM·h, a C0 [1] of 2640 nM and a clearance [1] of 13 mL/min/kg. For the same compound, the half-life [1] was 0.2 h, the Vd ([1]; read-out: Vdss) was 0.19 L/kg and the half-life [2] was over 3.61 h. For the same compound, the CLint scaled ([2]; read-out: CLint (liver)) was under 17.8 mL/min/kg, the half-life (Stability in whole blood) was over 9.63 h and the half-life (Stability in plasma) was over 9.63 h. It also gave an AUC(0-t) ([3]; single IV 2.5 mg/kg) of 0.765 µM·h, a Cmax ([3]; single IV 2.5 mg/kg) of 1960 nM and an AUC(0-t) ([3]; single IV 3.75 mg/kg) of 3.09 µM·h. The Cmax ([3]; single IV 3.75 mg/kg) was 2750 nM, the AUC(0-t) ([3]; single IV 5 mg/kg) was 5.65 µM·h and the Cmax ([3]; single IV 5 mg/kg) was 4590 nM.
